Assay results from US20250382334.

Columns and labels:
[1] = target: v2.1 BE-VLP MMLV gag-ABE8e fusion protein (cleavable linker …)
[2] = target: v2.2 BE-VLP MMLV gag-ABE8e fusion protein (cleavable linker VQALVLTQ)
[3] = target: v2.3 BE-VLP MMLV gag-ABE8e fusion protein (cleavable linker […])
[4] = target: v2.4 BE-VLP MMLV gag-ABE8e fusion protein (cleavable linker […])

B1: Moloney murine leukemia virus (MMLV) protease, supplied as wild-type MMLV gag-pro-pol polyprotein (protein)
chain: TLDDQGGQGQEPPPEPRITLKVGGQPVTFLVDTGAQHSVLTQNPGPLSDKSAWVQGATGGKRYRWTTDRKVHLATGKVTHSFLHVPDCPYPLLGRDLLTKLKAQIHFEGSGAQVMGPMGQPLQVL
fraction of cleaved ABE8e versus full-length gag-ABE8e present in purified eVLPs (western blot) [1]: the v2.4 linker is cleaved more efficiently than the v2.1 and v2.2 linkers, but less efficiently than the v2.3 linker
fraction of cleaved ABE8e versus full-length gag-ABE8e present in purified eVLPs (western blot) [2]: the v2.4 linker is cleaved more efficiently than the v2.1 and v2.2 linkers, but less efficiently than the v2.3 linker
fraction of cleaved ABE8e versus full-length gag-ABE8e present in purified eVLPs (western blot) [3]: the v2.4 linker is cleaved more efficiently than the v2.1 and v2.2 linkers, but less efficiently than the v2.3 linker
fraction of cleaved ABE8e versus full-length gag-ABE8e present in purified eVLPs (western blot) [4]: the v2.4 linker is cleaved more efficiently than the v2.1 and v2.2 linkers, but less efficiently than the v2.3 linker
